Target: OX40 (CD134) on mouse lymph node T cells (mouse) (UniProt P47741)
Assay: cell-based or functional assay

B1: OX40 agonistic antibody (OX86) (antibody, from another filing, V domains shown)
VH: QVQLKESGPGLVQPSQTLSLTCTVSGFSLTGYNLHWVRQPPGKGLEWMGRMRYDGDTYYNSVLKSRLSISRDTSKNQVFLKMNSLQTDDTAIYYCTRDGRGDSFDYWGQGVMVTVSS
VL: DIVMTQGALPNPVPSGESASITCRSSQSLVYKDGQTYLNWFLQRPGQSPQLLTYWMSTRASGVSDRFSGSGSGTYFTLKISRVRAEDAGVYYCQQVREYPFTFGSGTKLEIK
With B1 the interferon-gamma secretion (ELISA), after subtracting background of the negative control was 15 pg/mL.

— patent US20100076060A1
